The text below walks through data of patent US20220403048A1, “BINDING MOLECULES TO ARGINASE II [ARG2]” (Cancer Research Technology Limited, priority 2019, published 2022).

To fix the notation:
B1: C0021139: anti-ARG2 antibody, VH SEQ ID NO: 212, VL SEQ ID NO: 217 (antibody, listed as Homo sapiens, V domains shown)
VH: EVQLLESGGGLVQPGGSLRLSCAASGFTFQYDYQVWVRQAPGKGLEWVSAISGSGGSTYYADSVKGRFTISRDNSKNTLYLQMNSLRAEDTAVYYCARLRADLGLYMDLWGRGTLVTVSS
VL: QSVLTQPPSVSAAPGQKVTISCSGSSSNIGNHYVSWYQQLPGTAPKLLIYDNSERTSGIPDRFSGSKSGTSATLGITGLQTGDEADYYCGTWDELTSNLVFGGGTKLTVL
modifications: C0021139
B2: C0021022: anti-ARG2 antibody, VH SEQ ID NO: 42, VL SEQ ID NO: 47 (antibody, listed as Homo sapiens, V domains shown)
VH: EVQLLESGGGLVQPGGSLRLSCAASGFTFSSYAMSWVRQAPGKGPEWVSAISGFSPYYADSVKGRFTISRDNSKNTLYLQMNSLRAEDTAVYYCARLRADLGLYMDLWGRGTLVTVSS
VL: B1 VL with T56P, E94S, L95S, T96L, N98A
modifications: C0021022
B3: C0021133: anti-ARG2 antibody, VH SEQ ID NO: 192, VL SEQ ID NO: 197 (antibody, listed as Homo sapiens, V domains shown)
VH: B1 VH with Q30R, Y33H, Q34H
VL: B1 VL with I20V, N52T, S53T, E54V, R55L, T56S
modifications: C0021133
B4: C0021061: anti-ARG2 antibody, first generation lead, VH SEQ ID NO: 62, VL SEQ ID NO: 67 (antibody, listed as Homo sapiens, V domains shown)
VH: EVQLLESGGGLVQPGGSLRLSCAASGFTFSSYAMSWVRQAPGKGLEWVSAKPTDAGSTYYADSVKGRFTISRDNSKNTLYLQMNSLRAEDTAVYYCARLRADLGLYMDLWGRGTLVTVSS
VL: B1 VL with D51N, N52T, S53V, E54Y, R55P, T56K, E94S, L95S, T96L, N98A
modifications: C0021061
B5: C0021065: anti-ARG2 antibody, VH SEQ ID NO: 72, VL SEQ ID NO: 77 (antibody, listed as Homo sapiens, V domains shown)
VH: B2 VH with K74R
VL: B1 VL with N52T, S53D, E54H, R55M, T56A, E94S, L95S, T96L, N98A
modifications: C0021065
B6: C0021092: anti-ARG2 antibody, VH SEQ ID NO: 92, VL SEQ ID NO: 97 (antibody, listed as Homo sapiens, V domains shown)
VH: B4 VH with S31R, K51H, P52T, T53H, D54S, A55P
VL: B1 VL with D51N, N52S, S53V, E54A, T56P, E94S, L95S, T96L, N98A
modifications: C0021092
B7: C0021158 IgG: anti-ARG2 antibody, VH SEQ ID NO: 282, VL SEQ ID NO: 287; IgG and Fab versions carry these sequences (antibody, listed as Homo sapiens, V domains shown)
VH: B1 VH with Q30R, D32E, Y33V, Q34A, V35A, S54P, G55I, G56P, S57K, T58G
VL: B1 VL with S57A, I59V
modifications: C0021158 IgG
B8: C0021177: anti-ARG2 antibody, VH SEQ ID NO: 322, VL SEQ ID NO: 327 (antibody, listed as Homo sapiens, V domains shown)
VH: B1 VH with Q30R, D32E, Y33V, Q34A, V35A, S54P, G55A, G56P, S57K, T58G
VL: B1 VL with V3E, S9T, V10A, N52T, S53T, E54V, R55L, T56S
modifications: C0021177

Residue numbers refer to the chain shown, from its start.

Sequence of cynomolgus ARG2 (as listed by the source): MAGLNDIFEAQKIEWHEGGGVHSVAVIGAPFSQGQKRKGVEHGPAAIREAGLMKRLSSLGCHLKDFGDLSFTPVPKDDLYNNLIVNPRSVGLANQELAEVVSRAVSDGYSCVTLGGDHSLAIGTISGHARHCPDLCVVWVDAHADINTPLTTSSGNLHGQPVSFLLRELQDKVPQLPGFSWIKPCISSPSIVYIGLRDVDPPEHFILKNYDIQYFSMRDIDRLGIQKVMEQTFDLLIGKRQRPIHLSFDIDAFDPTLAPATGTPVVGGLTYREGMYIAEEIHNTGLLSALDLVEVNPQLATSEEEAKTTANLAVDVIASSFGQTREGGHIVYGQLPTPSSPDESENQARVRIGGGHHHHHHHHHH

The first test has as its target T1, human ARG2 (Homo sapiens, UniProt P78540, E275H/R327K).
T1 construct: His10 (after a GGG linker) (C); made in house; host or cells: E. coli BL21 (DE3)
T1 sequence (P78540 23-354 E275H/R327K): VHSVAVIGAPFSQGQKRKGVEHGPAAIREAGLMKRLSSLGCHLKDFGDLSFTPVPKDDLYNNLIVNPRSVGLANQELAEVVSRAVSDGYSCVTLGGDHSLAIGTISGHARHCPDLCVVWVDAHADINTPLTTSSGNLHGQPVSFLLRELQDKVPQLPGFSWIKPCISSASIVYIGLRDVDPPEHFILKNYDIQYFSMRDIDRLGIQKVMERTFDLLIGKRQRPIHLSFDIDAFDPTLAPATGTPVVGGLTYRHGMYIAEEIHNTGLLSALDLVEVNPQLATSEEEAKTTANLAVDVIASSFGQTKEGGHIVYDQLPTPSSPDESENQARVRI
Briefly: Bio-Layer Interferometry (OctetRED) binding kinetics, human ARG2. As to conditions: Fab as analyte; streptavidin capture; analyte 1.8 to 120 nM; affinity-matured antibodies. The text has this:
(§1) The OctetRED (Pall ForteBio) instrument was used to assess the kinetic parameters of the interactions between C0020187 and recombinantly produced human ARG2, cynomolgus ARG2 and human ARG1. The Octet biosensor uses an optical analytical technique that analyses the interference pattern of white light reflected from two surfaces: a layer of immobilised protein on the sensor tip, and an internal reference layer. Any changes in binding at the biosensor tip result in a shift in interference pattern, which can be measured in real time. Molecules associating with or dissociating from ligands at the biosensor tip shift the interference pattern and generate a response on the Octet system which is recorded by the acquisition software.
(§2) Typically, a defined concentration of the analyte species is brought into contact with the coupled ligand and any binding is detected as an increased in signal (association phase). This is followed by a period of buffer rinse, during which dissociation of the analyte species from the surface immobilised ligand can be observed as a decrease in signal (dissociation phase). Repetition of this with a range of analyte concentrations provides data for the analysis of binding kinetics.
(§3) An Octet Kinetics Buffer (PBS containing 0.01% BSA and 0.002% Tween20) is typically used as the diluent buffer for the analyte samples and as the flow buffer during the dissociation phase. The experimental data is recorded over time as shift in interference pattern (nm) over time, which is directly proportional to the optical thickness at the biosensor tip, which in turn is an approximate measure of the mass of analyte bound. The proprietary Octet Data Analysis software package can then be used to process data and fit binding models to the data sets. Returned association (ka, M^−1 s^−1) and dissociation (kd, s^−1) rate constants allow calculation of dissociation (KD, M) affinity constants.
(§4) The affinity of binding between the Fab of C0020187 and human ARG2, cynomolgus ARG2 and human ARG1 was estimated using assays in which the biotinylated ARG antigen was captured on a streptavidin sensor tip. A fresh sensor tip was used for each measurement and no regeneration was used. A series of dilutions of the C0020187 Fab (3.25-240 nM) were individually placed in contact with the ligand surface for a sufficient amount of time to observe sensorgrams that could be fitted to an appropriate binding model with confidence (typically 5 minutes), followed by an appropriate length of dissociation time (typically 10 minutes). Blank reference (0 nM Fab) data were subtracted from each dataset to reduce the impact of any buffer artefacts or non-specific binding effects. An appropriate binding model was then fitted simultaneously to the data from each analyte titration using the Octet Evaluation software.
(§5) Example results for C0020187 are shown in Table 9, showing the association rate constants (ka), dissociation rate constants (kd) and dissociation constants (KD). These parameters were derived from a 1:1 binding fit to the data.
(§6) The affinities of the affinity-matured antibodies to human ARG2 were measured on the OctetRED system as described in section 1.15 using the streptavidin capture method. Typically, an analyte titration range of 1.8 to 120 nM was used.
The affinities of the second-generation antibodies to human ARG2 were measured on the OctetRED system. A screening assay which stably captures His-tagged ARG2 as the ligand on an anti-His surface was utilised to screen the second-generation candidates as Fabs at an analyte range of 1.8 to 120 nM, with an association time of 5 minutes and a dissociation time of 10 minutes. Sensors were regenerated using 10 mM glycine pH 1.5 after each cycle. Based on this assay, six candidates with estimated affinities in the sub-nanomolar range were identified, and they were further profiled using an extended assay which is more suitable for antibodies of high affinities. […]
B1 registered a ka of 198000 M⁻¹ s⁻¹ and a kd of 0.000871 s⁻¹.
Taken in the same sequence, the figures for B2 were 412000 M⁻¹ s⁻¹ and 0.00112 s⁻¹.
Molecule B3 showed a ka of 219000 M⁻¹ s⁻¹ and a kd of 0.000449 s⁻¹.
Molecule B4 returned a ka of 271000 M⁻¹ s⁻¹ and a kd of 0.000351 s⁻¹.
Regarding B5, the ka came out at 409000 M⁻¹ s⁻¹ and the kd turned out to be 0.000665 s⁻¹.
Taken in the same sequence, the figures for B6 were 280000 M⁻¹ s⁻¹ and 0.000755 s⁻¹.

Staying with this test, now noted: second-generation Fab; extended assay: association 10 min, dissociation 40 min, 0.47 to 30 nM, streptavidin surface with bio-ARG2.
For the molecule B7, the ka turned out to be 262000 M⁻¹ s⁻¹ and the kd came to 4.54e-05 s⁻¹.
In the case of B8, the ka was 202000 M⁻¹ s⁻¹ and the kd was found to be 3.51e-05 s⁻¹.

A further test has as its system cynomolgus ARG2. In words: Bio-Layer Interferometry (OctetRED) binding kinetics, cynomolgus ARG2. The note with it: Fab as analyte; cyno ARG2 ligand; affinity-matured antibodies.
From the text: as §1, §2, §3, §4, §5, §6
The affinities of some of these antibodies to cynomolgus ARG2 were determined using the same assay, and the derived kinetic parameters are shown in Table 21.
B1 showed a ka of 275000 M⁻¹ s⁻¹ and a kd of 0.000724 s⁻¹.
As to B2, the ka was determined as 706000 M⁻¹ s⁻¹ and the kd was found to be 0.00117 s⁻¹.
As for B3, the ka was 328000 M⁻¹ s⁻¹ and the kd worked out at 0.000549 s⁻¹.
Molecule B4 yielded a ka of 310000 M⁻¹ s⁻¹ and a kd of 0.000296 s⁻¹.
Taken in the same sequence, the figures for B5 were 617000 M⁻¹ s⁻¹ and 0.000782 s⁻¹.
Taken in the same sequence, the figures for B6 were 354000 M⁻¹ s⁻¹ and 0.000726 s⁻¹.

Still in this test, the particulars now being: second-generation Fab; cyno ARG2 ligand; same extended assay.
In turn, B7 gave a ka of 429000 M⁻¹ s⁻¹ and a kd of 4.64e-05 s⁻¹.
Turning to B8, the ka was 414000 M⁻¹ s⁻¹ and the kd stood at 3.12e-05 s⁻¹.

The target in the next test is T2, human ARG1 (Homo sapiens, UniProt P05089).
T2 construct: Avi tag (N); His10 (after a GGG linker) (C); made in house; host or cells: E. coli BL21 (DE3)
T2 sequence (P05089 with tags, fused parts or gaps): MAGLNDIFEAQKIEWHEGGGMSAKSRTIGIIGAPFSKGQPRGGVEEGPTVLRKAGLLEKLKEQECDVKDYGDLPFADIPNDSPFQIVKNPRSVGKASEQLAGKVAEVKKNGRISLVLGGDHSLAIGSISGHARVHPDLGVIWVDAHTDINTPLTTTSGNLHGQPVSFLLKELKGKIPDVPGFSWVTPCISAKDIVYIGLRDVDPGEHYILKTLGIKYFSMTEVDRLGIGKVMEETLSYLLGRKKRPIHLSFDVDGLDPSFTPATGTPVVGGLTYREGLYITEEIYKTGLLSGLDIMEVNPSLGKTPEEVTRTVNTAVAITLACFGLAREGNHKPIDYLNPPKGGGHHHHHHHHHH
Briefly: Bio-Layer Interferometry (OctetRED) binding, human ARG1. The note with it: Fab analyte up to 120 nM, screening assay on anti-His surface. The protocol:
as §4
The binding of affinity-matured antibodies to human ARG1 was also tested on the OctetRED system using a screening assay which stably captures […] as the ligand on an anti-His surface. The Fabs were typically tested in an analyte range of 1.8 to 120 nM, with an association time of 5 minutes and a dissociation time of 10 minutes. Sensors were regenerated using 10 mM glycine pH 1.5 after each cycle.
Binding of the second-generation antibodies to human ARG was also tested on the OctetRED system using a screening assay which stably captures […] as the ligand on an anti-His surface. The Fabs were tested as analyte up to 120 nM, with an association time of 5 minutes and a dissociation time of 10 minutes. Sensors were regenerated using 10 mM glycine pH 1.5 after each cycle.
Consider B7, for which the “Results, binding to human ARG1 (BLI)” value was “No binding observed”.
Same read-out and setting: next, B1: “No binding observed”; B8: “No binding observed”.
For B2, the “Results, binding to human ARG1 (BLI)” value is “No binding observed”.
The same measure, in the same setting: next, B3: “No binding observed”; B4: “No binding observed”.
Same read-out and setting: in the case of B5 it was “No binding observed”; in that of B6, “No binding observed”.
